Assay results reported in patent US20140271457A1 (AbbVie / Abbott, published 2014).

Experiments:
[1] = target: T1, Recombinant Human TNF-α/TNFSF1A (human, UniProt P01375 77-233); test: cell-based or functional assay
T1 sequence (P01375 77-233 limits assumed): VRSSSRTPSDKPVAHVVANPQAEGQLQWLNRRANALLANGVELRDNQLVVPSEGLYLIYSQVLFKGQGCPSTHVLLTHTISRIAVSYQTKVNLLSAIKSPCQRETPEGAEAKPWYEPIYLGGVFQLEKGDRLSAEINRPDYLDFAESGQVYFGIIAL

[2] = target: T1, Recombinant Human TNF-α/TNFSF1A; test: Biacore SPR
Procedure, shortened: (§1)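 Antibodies or DVD-Ig captured on anti-mouse IgG (Fcγ) CM5 surface, SPR at 25 °C in HBS-EP+. Antigen at 0.8–100 nM, 50 μl/min; association 5 min, dissociation 10 min. kon and koff came from a global 1:1 fit with local Rmax.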

[3] = target: Recombinant Human IL-13 (human, UniProt P35225 35-146, limits assumed); test: Biacore SPR
Procedure, shortened: as §1
Target sequence in this assay (P35225 35-146 limits assumed): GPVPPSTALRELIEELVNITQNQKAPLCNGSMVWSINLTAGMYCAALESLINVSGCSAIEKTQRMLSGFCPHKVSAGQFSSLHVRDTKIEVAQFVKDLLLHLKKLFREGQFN

[4] = target: Recombinant Human IL-13 (human, UniProt P35225 35-146, limits assumed); test: cell-based or functional assay
Target sequence in this assay (P35225 35-146 limits assumed): as above

[5] = target: T2, Recombinant Human TNF-α/TNFSF1A (human, UniProt P01375 77-233); test: SPR (Biacore)
T2 construct: also called huTNFα
T2 sequence (P01375 77-233 limits assumed): as the sequence (P01375 77-233 limits assumed) above

B1: DVD3168 (bispecific antibody, IgG1)
VH: EVQLVQSGAEVKKPGASVKVSCKASGYTFTSYWMHWVRQAPGQGLEWIGNINPKGGSNIYNEKFQGRVTMTRDTSISTAYMELSRLRSDDTAVYYCARLDYFGDSFDLWGQGTTVTVSSGGGGSGGGGSEVQLVQSGAEVKKPGASVKVSCKASGYTFANYGIIWVRQAPGQGLEWMGWINTYTGKPTYAQKFQGRVTMTTDTSTSTAYMELSSLRSEDTAVYYCARKLFTTMDVTDNAMDYWGQGTTVTVSS
VL: DIQMTQSPSSLSASVGDRVTITCRASQGIRNYLNWYQQKPGKAPKLLIYYASNLEVGVPSRFSGSGSGTDYTLTISSLQPEDFATYYCQQDNRFPYTFGGGTKVEIKRGGSGGGGSGDIQMTQSPSSLSASVGDRVTITCRASQDISQYLNWYQQKPGKAPKLLIYYTSRLQSGVPSRFSGSGSGTDFTLTISSLQPEDFATYFCQQGNTWPPTFGQGTKLEIKR
notes: DVD-Ig; wt hIgG1 + kappa constants
- C-Terminal VD huTNFα Neutralization Assay IC50 [1]: 0.146 nM
- Kd [2]: 0.045 nM
- koff [2]: 3.6e-05 s⁻¹
- kon [2]: 800000 M⁻¹ s⁻¹
- Kd [3]: 0.064 nM
- koff [3]: 7.4e-05 s⁻¹
- kon [3]: 1.1e+06 M⁻¹ s⁻¹

B2: DVD3169 (bispecific antibody, IgG1)
VH: EVQLVQSGAEVKKPGASVKVSCKASGYTFTSYWMHWVRQAPGQGLEWIGNINPKGGSNIYNEKFQGRVTMTRDTSISTAYMELSRLRSDDTAVYYCARLDYFGDSFDLWGQGTTVTVSSASTKGPEVQLVQSGAEVKKPGASVKVSCKASGYTFANYGIIWVRQAPGQGLEWMGWINTYTGKPTYAQKFQGRVTMTTDTSTSTAYMELSSLRSEDTAVYYCARKLFTTMDVTDNAMDYWGQGTTVTVSS
VL: DIQMTQSPSSLSASVGDRVTITCRASQGIRNYLNWYQQKPGKAPKLLIYYASNLEVGVPSRFSGSGSGTDYTLTISSLQPEDFATYYCQQDNRFPYTFGGGTKVEIKRTVAAPDIQMTQSPSSLSASVGDRVTITCRASQDISQYLNWYQQKPGKAPKLLIYYTSRLQSGVPSRFSGSGSGTDFTLTISSLQPEDFATYFCQQGNTWPPTFGQGTKLEIKR
notes: as for B1
- C-Terminal VD huTNFα Neutralization Assay IC50 [1]: 0.169 nM
- Kd [2]: < 0.0015 nM
- koff [2]: < 1e-06 s⁻¹
- kon [2]: 650000 M⁻¹ s⁻¹
- Kd [3]: 0.01 nM
- koff [3]: 2e-05 s⁻¹
- kon [3]: 1.9e+06 M⁻¹ s⁻¹

B3: DVD3169 (bispecific antibody, human IgG1, kappa)
heavy: not shown
light: DIQMTQSPSSLSASVGDRVTITCRASQGIRNYLNWYQQKPGKAPKLLIYYASNLEVGVPSRFSGSGSGTDYTLTISSLQPEDFATYYCQQDNRFPYTFGGGTKVEIKRTVAAPDIQMTQSPSSLSASVGDRVTITCRASQDISQYLNWYQQKPGKAPKLLIYYTSRLQSGVPSRFSGSGSGTDFTLTISSLQPEDFATYFCQQGNTWPPTFGQGTKLEIKRTVAAPSVFIFPPSDEQLKSGTASVVCLLNNFYPREAKVQWKVDNALQSGNSQESVTEQDSKDSTYSLSSTLTLSKADYEKHKVYACEVTHQGLSSPVTKSFNRGEC
notes: DVD-Ig: outer AB399 (IL-13), inner AB441 (TNF); linkers HG-short/LK-short; also called DVD3169H; DVD3169L
- IL-13 Neutralization Assay IC50 [4]: 0.089 nM
- binding result [5]: binds

B4: DVD3168 (bispecific antibody, human IgG1, kappa)
heavy: not shown
light: DIQMTQSPSSLSASVGDRVTITCRASQGIRNYLNWYQQKPGKAPKLLIYYASNLEVGVPSRFSGSGSGTDYTLTISSLQPEDFATYYCQQDNRFPYTFGGGTKVEIKRGGSGGGGSGDIQMTQSPSSLSASVGDRVTITCRASQDISQYLNWYQQKPGKAPKLLIYYTSRLQSGVPSRFSGSGSGTDFTLTISSLQPEDFATYFCQQGNTWPPTFGQGTKLEIKRTVAAPSVFIFPPSDEQLKSGTASVVCLLNNFYPREAKVQWKVDNALQSGNSQESVTEQDSKDSTYSLSSTLTLSKADYEKHKVYACEVTHQGLSSPVTKSFNRGEC
notes: DVD-Ig: outer AB399 (IL-13), inner AB441 (TNF); linkers GS-H10/GS-L10; also called DVD3168H; DVD3168L
- IL-13 Neutralization Assay IC50 [4]: 0.081 nM
- binding result [5]: binds
